Measurements: the supplement of paper PMC10567573

B1: NETO1 (parent)
chain: KTSLLDQLTNTSGTVIGVTSCIVI

Variants of: B1
Assay: protein stability index of a GFP-peptide fusion (GPS, HEK-293T) (PSI 1-6); higher = more stable
Settings: c terminus: a fixed tail appended
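Also: lentivirally expressed fusions sorted by FACS into six bins by GFP to DsRed ratio, PSI derived from sequencing read proportions per bin multiplied by bin number.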

Protein stability index, by site and new letter:
S3: N 2.57, L 2.17, Q 3.04, W 2.56, G 1.92, I 3.45
V15: P 3.31, E 2.04, M 2.87, H 1.99, L 4.43, T 3.07, G 2.98, I 3.08, S 2.96, F 2.44, C 2.06, N 2.74, W 2.59, A 2.65, D 3.39, Q 2.33
C21: P 2.13, T 2.88, R 3.31, Y 2.72, I 2.7, W 2.62, M 2.41, K 3.29, E 2.83, S 3.06, H 2.2, A 2.7, Q 3.44, G 3.12
S12: F 2.37, N 3.41, E 2.87, P 2.51, Y 3.62, M 1.87, V 3.35, L 2.43, D 3.07, H 2.69, Q 2.56, G 3.53, I 2.89, A 2.96, W 1.75
N10: Q 2.33, M 3.51, W 3.97, S 2.76, P 2.96, V 3.24, C 2.71, R 2.53, F 2.3, A 2.13, D 2.47, I 3.08, H 2.78
T14: G 2.11, N 2.98, A 2.03, R 3.41, V 3.29, Y 2.64, H 2.62, M 2.62, L 2.47, W 2.37, F 2.82, S 1.94, C 2.61, Q 3.41, D 2.58, E 3.18, P 2.69
G13: A 2.12, F 3.7, D 2.26, K 2.9, H 2.65, I 2.57, E 3.52, R 3.34, C 2.5, V 2.66, L 2.42, M 3.17, Y 3.2, P 2.94, W 3.1, N 3.9
G17: M 2.55, I 3.43, H 3.23, W 2.9, T 3.32, K 2.64, E 2.69, R 2.88, C 3.42, L 3.83, Y 1.98, S 3.25, Q 2.36
V23: C 3.17, W 2.74, A 2.03, K 3.04, M 2.56, Q 2.87, E 2.98, T 2.85, H 1.97, I 2.81, F 2.28, R 2.65, L 3.18, Y 2.66, D 1.95
L8: H 3.66, T 3.48, F 2.71, R 3.04, G 2, C 3.29, K 2.99, S 3.3, V 3.52, M 2.83, E 2.35, D 3.02
I24: P 2.33, L 3.2, F 1.79, S 1.94, K 2.04, R 1.74, H 1.99, A 1.71, W 2.92, T 1.6, V 2.2, Q 1.62, G 1.79, E 2.21
L5: V 2.59, H 2.21, M 3.86, I 2.8, G 2.97, K 2.78, C 2.32, D 2.98, A 3.63, Q 3.37, F 2.32, W 3.45, N 3.16, R 3.13, S 3.07, E 2.98
